[ ]: non-standard residue; d: D form. Sta = CC(C)C[C@H](N)[C@@H](O)CC(=O)O
Key:
[1] = target: T1, recombinant full-length human β-secretase (1-501) expressed from pCEK clone 27 / pCFβA2 in 293T or Cos A2 … (human, UniProt P56817 46-501); experiment: affinity chromatography on peptide-Sepharose, extracts of transfected 293T and COS A2 cells
T1 construct: From 293T cells the N-terminus was mainly residue 46, with minor forms at 22 and 63; From Cos A2 cells it was 46 and 58; also called p501 β-secretase; full length clone 27
T1 sequence (P56817 46-501 limits assumed): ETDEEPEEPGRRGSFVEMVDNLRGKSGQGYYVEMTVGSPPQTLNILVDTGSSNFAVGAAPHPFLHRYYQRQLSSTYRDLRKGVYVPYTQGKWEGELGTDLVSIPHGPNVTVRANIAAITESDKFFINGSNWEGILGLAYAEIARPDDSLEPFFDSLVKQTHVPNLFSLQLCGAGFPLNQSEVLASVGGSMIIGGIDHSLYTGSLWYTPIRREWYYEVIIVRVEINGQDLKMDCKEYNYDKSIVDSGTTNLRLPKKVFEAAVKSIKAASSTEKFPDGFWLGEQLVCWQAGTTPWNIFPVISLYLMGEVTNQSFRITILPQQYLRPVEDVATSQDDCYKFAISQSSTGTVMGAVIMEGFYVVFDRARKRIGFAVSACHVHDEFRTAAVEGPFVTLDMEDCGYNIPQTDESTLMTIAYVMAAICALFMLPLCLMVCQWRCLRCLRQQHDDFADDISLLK
Protocol: The cell pellet was resuspended by homogenizing for 30 seconds using a handheld homogenizer (0.5 ml/pellet of approximately […] in extraction buffer consisting of 20 mM TRIS buffer, pH 7.5, 2 mM EDTA, 0.2% Triton X-100, plus protease inhibitors: 5 µg/ml E-64, 10 µg/ml pepstatin, 1 mM PMSF), centrifuged as maximum speed in a microfuge (40 minutes at 4 degrees C.). Pellets were suspended in original volume of extraction buffer, then stirred at 1 hour at 4 degrees C. with rotation, and centrifuted again in a microfuge at maximum speed for 40 minutes. The resulting supernatant was saved as the "extract." The extract was then diluted with 20 mM sodium acetate, pH 5.0,2 mM EDTA and 0.2% Triton X-100 (SP buffer A), and 5M NaCl was added to a final concentration of 60 mM NaCl. The pH of the solution was then adjusted to pH 5.0 with glacial acetic acid diluted 1:10 in water. Aliquots were saved ("SP load"). The SP load was passed through a 1 ml SP HiTrap column which was pre-washed with 5 ml SP buffer A, 5 ml SP buffer B (SP buffer A with 1 M NaCl) and 10 ml SP buffer A. An additional 2 ml of 5% SP buffer B was passed through the column to displace any remaining sample from the column. The pH of the SP flow-through was adjusted to pH 4.5 with 10× diluted acetic acid. This flow-through was then applied to a P10-P4'staD→V-Sepharose Affinity column, as described below. […]

β-secretase 46-452 = target: T2, β-secretase 46-452 (human, UniProt P56817 46-452); experiment: binding to peptide-Sepharose affinity matrix
T2 construct: C-terminally truncated form lacking the transmembrane region
T2 sequence (P56817 46-452 limits assumed): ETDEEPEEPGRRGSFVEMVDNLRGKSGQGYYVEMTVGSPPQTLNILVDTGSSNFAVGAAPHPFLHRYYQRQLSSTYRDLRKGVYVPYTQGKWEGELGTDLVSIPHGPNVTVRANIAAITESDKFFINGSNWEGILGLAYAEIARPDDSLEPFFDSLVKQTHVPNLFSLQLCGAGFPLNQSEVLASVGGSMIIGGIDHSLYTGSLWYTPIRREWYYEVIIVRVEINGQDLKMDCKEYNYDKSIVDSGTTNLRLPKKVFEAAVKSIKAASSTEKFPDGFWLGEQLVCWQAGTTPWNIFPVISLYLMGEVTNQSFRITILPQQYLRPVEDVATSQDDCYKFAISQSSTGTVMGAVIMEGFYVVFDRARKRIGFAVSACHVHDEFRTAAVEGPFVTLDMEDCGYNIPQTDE
Protocol: The same fractions run under non-reducing conditions (FIG. 6B) provide evidence for disulfide cross-linked oligomers. When the anion exchange pool fractions 18–21 (see FIG. 6B) were treated with dithiothreitol (DTT) and re-chromatographed on a Mini Q column, then subjected to SDS-PAGE under non-reducing conditions, a single band running at about 70 kilodaltons was observed.
All manipulations were carried out at room temperature. 12.5 ml of 80% slurry of NHS-Sepharose (i.e. 10 ml packed volume; Pharmnacia, Piscataway, N.J.) was poured into a Bio-Rad EconoColumn (BioRad, Richmond, Calif.) and washed with 165 ml of ice-cold 1.0 mM HCl. When the bed was fully drained, the bottom of the column was closed off, and 5.0 ml of 7.0 mg/ml P10-P4'sta(D→V) peptide (dissolved in 0.1 M HEPES, pH 8.0) was added. The column was capped and incubated with rotation for 24 hours. After incubation, the column was allowed to drain, then washed with 8 ml of 1.0 M ethanolamine, pH 8.2. An additional 10 ml of the ethanolamine solution was added, and the column was again capped and incubated overnight with rotation. […]

binding result [1]: binds | binding result (β-secretase 46-452): binds
B1: P10-P4′staD→V (NH2-KTEEISEVN[sta]VAEF-CO2H) (peptide)
peptide: H-KTEEISEVN[Sta]VAEF-OH
notes: also called P10-P4′(statine)D→V
